Values of other authors in article PMC7616283.
pKd: −log10 of the molar value.

Target: CCR8 (Homo sapiens) (UniProt P51685)
Sequence (P51685 whole entry): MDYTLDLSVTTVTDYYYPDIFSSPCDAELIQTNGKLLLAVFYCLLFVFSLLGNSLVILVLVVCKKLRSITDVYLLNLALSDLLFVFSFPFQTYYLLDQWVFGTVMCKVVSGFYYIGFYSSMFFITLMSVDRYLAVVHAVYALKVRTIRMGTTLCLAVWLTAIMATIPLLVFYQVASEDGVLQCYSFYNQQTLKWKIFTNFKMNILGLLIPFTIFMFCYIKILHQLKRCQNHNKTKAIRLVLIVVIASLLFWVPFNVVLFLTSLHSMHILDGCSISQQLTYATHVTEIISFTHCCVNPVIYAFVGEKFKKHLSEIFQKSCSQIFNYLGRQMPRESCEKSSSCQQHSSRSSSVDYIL

CCL18, sequence (P55774 24-89): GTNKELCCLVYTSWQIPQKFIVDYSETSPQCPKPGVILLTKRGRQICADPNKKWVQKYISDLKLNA

## CCL18 (from UniProt P55774)
  pKd: 8.72
